Measured values published in the supplement of paper PMC10567573.
± gives the standard deviation.

Test: protein stability index of a GFP-peptide fusion (GPS, HEK-293T) (PSI 1-6); higher = more stable
Conditions: c terminus: a fixed tail appended
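Note: 24-mer peptide tiles fused after GFP, lentivirally expressed, FACS-sorted into six equal bins by GFP/DsRed ratio, decoded by Illumina sequencing, PSI is the read-weighted mean bin number.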

Row | Sequence | protein stability index (treatment: DMSO) | protein stability index (treatment: MLN4924 1 uM, 8 h)
1 | NHTTVTNSTPLRAACFDGRLDIVK [FEM1B] | 3.46 ± 0.23 | 3.4 ± 0.25
2 | NKATNTDHLTTVLYLQLAICSSLQ [C8orf76] | 3.4 ± 0.44 | 3.21 ± 0.64
3 | NKNSTDVKGCSMYVALFPCNECAK [DCTD] | 2.19 ± 0.37 | 2.13 ± 0.14
4 | NKRAALQALKRKKRFEKQLTQIDG [CHMP4C] | 3.95 ± 0.42 | 3.9 ± 0.34
5 | NLIEKSASLDNGGCALTTFSVLEG [SOAT1] | 3.28 ± 0.37 | 3.32 ± 0.32
6 | NLLALGTDRKLDDGDDKVFRRAPS [PPFIA4] | 4.51 ± 0.25 | 4.5 ± 0.24
7 | NLLQDSSTSDSDLTCDSSTSSSDD [C18orf25] | 5.53 ± 0.3 | 5.61 ± 0.16
8 | NLRKQLETLSGDRVRLDSELRNVQ [KRT71] | 3.69 ± 0.08 | 3.74 ± 0.15
9 | NLTSNEGHSLKNLEHRLNEMERTQ [RASAL3] | 4.28 ± 0.32 | 4.26 ± 0.25
10 | NNLTDRIVVIPGKVEEVSLPEQVD [CARM1] | 5.1 ± 0.13 | 5.27 ± 0.23
11 | NPPRAEFNYSVGFKDLNESLNALE [APBB1IP] | 3.48 ± 0.26 | 3.65 ± 0.21
12 | NRNLQKFSLFGDISVLQQQGSLSN [FBXO33] | 2.83 ± 0.28 | 2.86 ± 0.32
13 | NTAKSTSRVTAFLDDLSQKLKPLG [NLN] | 3.42 ± 0.15 | 3.35 ± 0.044
14 | NTEVPARNLYAYIQKLTQIETGEN [PTPRD] | 3.39 ± 0.22 | 3.37 ± 0.37
15 | NVQTEFPGEDENPEKASELSQVEL [TRIM55] | 5.48 ± 0.35 | 5.57 ± 0.3
16 | NVSGLRFETQMKTLAQFPETLLGD [KCNA4] | 3.53 ± 0.48 | 3.86 ± 0.1
17 | NWFNVTGSDKCVFLKNTEVSSMEC [CD69] | 2.82 ± 0.25 | 2.94 ± 0.26
18 | NYCSAYESFYESTSPECASPQFEG [NEUROD6] | 3.54 ± 0.22 | 3.67 ± 0.16
19 | PAFVKFAYVAEREDELSLVKGSRV [NCK2] | 3.09 ± 0.34 | 3.08 ± 0.39
20 | PAIADLFAESLQCKVDCEANLTPN [P3H4] | 3.93 ± 0.38 | 4.05 ± 0.55
21 | PAQSGILSDREVVNLFLHFTVNPK [BTBD1] | 1.84 ± 0.24 | 2.53 ± 0.23
22 | PASRRRVVEEVRRRATSGGKWPQV [LPCAT4] | 3.99 ± 0.17 | 3.82 ± 0.23
23 | PDEANVGKHPKDKTEDENKQSFLD [TOR1AIP2] | 5.42 ± 0.21 | 5.75 ± 0.2

Row | Sequence | protein stability index (treatment: DMSO) | protein stability index (treatment: MLN4924 1 uM, 8 h)
24 | PDVLRTKPAFIGKTNLDGMITVQL [PTPRD] | 2.52 ± 0.53 | 2.13 ± 0.57
25 | PDVTQQLLQKYNMQFLIRSHECKP [PPEF2] | 2.8 ± 0.21 | 2.71 ± 0.25
26 | PEAKVLHTKRLYRAVVEAVHRLDL [SMG5] | 2.19 ± 0.3 | 2.17 ± 0.11
27 | PEGQELQKLGSGAWDNPAYSGPPS [PKD2L1] | 4.53 ± 0.35 | 4.93 ± 0.36
28 | PELLSTHPFFDTAEPDMDDPAYIA [INTS4] | 5.12 ± 0.22 | 5.16 ± 0.12
29 | PEPQVPGPAHGPAQEEPWEKKESL [ZNF232] | 5.55 ± 0.29 | 5.62 ± 0.2
30 | PEPVYKLTQRQVNITVQKKVSQWW [HACD3] | 2.35 ± 0.49 | 2.51 ± 0.31
31 | PESKEPVEKEEEPDPEPPPVTPQV [SMG5] | 5.54 ± 0.25 | 5.46 ± 0.38
32 | PFILPDMVGGNAVPQRTAGGDVPE [MYORG] | 4.96 ± 0.24 | 5.09 ± 0.2
33 | PFPLGASAQNGLASSLPAEVHSLT [PLAGL1] | 3.94 ± 0.089 | 4.09 ± 0.16
34 | PGEWLELLLEPGSLYILRGSARYD [ALKBH7] | 3.2 ± 0.38 | 3.08 ± 0.51
35 | PGGITSHQLLGLFPSTSYNARLQA [TNXB] | 2.98 ± 0.084 | 3.02 ± 0.085
36 | PGIDIREDLAQKLNLEEDRIQIWF [HESX1] | 2.55 ± 0.56 | 2.43 ± 0.41
37 | PGPMGPPGPPGPTGVPGSPGHIGP [EMID1] | 4.82 ± 0.4 | 5.18 ± 0.34
38 | PGQHLSDYSQLNESTTKESSEASQ [FBXO34] | 5.47 ± 0.28 | 5.6 ± 0.24
39 | PGRPARLDQLLDMPAAGLAVQLRH [SPSB4] | 3.04 ± 0.36 | 3.33 ± 0.27
40 | PGYLPGAMPPYGQGPPMVPPYQGG [ZNF207] | 3.57 ± 0.2 | 3.42 ± 0.2
41 | PHCSDLMPSGSEEKILRELSEEEE [KCNA4] | 5.64 ± 0.23 | 5.56 ± 0.24
42 | PKEATVMCEQCDVFYCDPCRLRCH [TRIM9] | 3.65 ± 0.28 | 3.82 ± 0.42
43 | PKMLVDLLSQKKTISFLGCAIQMF [OR10K2] | 2.84 ± 0.58 | 2.93 ± 0.62
44 | PKNDNVVIPECAHGGLYKPVQCHP [SMOC2] | 3.44 ± 0.15 | 3.6 ± 0.36
45 | PLLGVKGDGKSKKKQAGRPKGSKG [RBBP5] | 4.88 ± 0.15 | 4.88 ± 0.35
